No end group written: not given here.
How the values were obtained:
[1] = test system: S. aureus-infected mice; parameters: species or system female Kunming mice; details: mouse, in vivo
Procedure: Bacterial infection mouse models were constructed as follows: S. aureus (ATCC 25923) was cultured in a liquid medium at 37 °C for approximately 24 h, washed with PBS (pH 7.4) and diluted to obtain a suspension of 1 × 10^8 CFU/mL. […] The mice were sacrificed with isoflurane anesthesia at 120 min postinjection. […] To evaluate the metabolic properties of [^99mTc]Tc-CN5UBI 29-41, biodistribution studies were carried out in mice infected with S. aureus at 30, 120 and 240 min.

[2] = test system: turpentine-oil-inflamed mice; experiment: Biodistribution in mice with turpentine-induced abscesses (sterile inflammation); details: tail vein injection, 120 min p.i., mean ± SD, n = 5
Procedure: The sterile inflammation mouse model was constructed as follows: turpentine oil (0.1 mL) was injected into the left thigh muscle of female Kunming mice (18–22 g). […] Each mouse was injected with 0.1 mL of [^99mTc]Tc-CN5UBI 29-41 (3.7 MBq/mL) via the tail vein. The mice were sacrificed under anesthesia with 1.5% isoflurane at 120 min postinjection. The organs of interest (the inflamed muscle in the left thigh, normal muscle in the right thigh, blood, heart, liver, lung, kidney, spleen, stomach, bone, small intestine and large intestine) were collected, weighed and measured by a γ-counter. The results are expressed as the percentage of the injected dose per gram of tissue ± standard deviation (%ID/g ± SD). After the mice were sacrificed, the tissues containing the thyroid around the trachea in the neck were collected and measured. The results are expressed as the percentage of the injected dose ± standard deviation (%ID ± SD).

[3] = type: physicochemical; details: pH 7.4
Procedure: The lipophilicities of the ^99mTc-labeled complexes were evaluated by the distribution coefficient. The method for determining the distribution coefficient was as follows: 0.1 mL of the radiolabeled complex (3.7 MBq) was mixed with 0.9 mL of phosphate buffer (0.025 mol/L, pH 7.4) and 1 mL of n-octanol in a 5 mL centrifuge tube. The mixture was shaken on a vortex mixer at room temperature for 3 min and centrifuged at 5000 r/min for 5 min. Aliquots of 0.1 mL of both n-octanol and PBS were collected, and the radioactivity was determined with a γ-counter. The distribution coefficient was calculated as follows: Log D = lg[(counts per minute in n-octanol/counts per minute in PBS)]. Each group of measurements was carried out five times in parallel. The final results are expressed as the log D ± SD.

[4] = test system: S. aureus-infected mice; experiment: SPECT imaging in bacterial infection mice; type: in vivo; details: S. aureus in left forelimb muscle, 30~37 MBq tail vein, imaging at 30, 120 and 240 min p.i., n = 2
Procedure: The bacterial-infected mouse model was generated as follows: 100 μL of bacterial suspension containing approximately 1 × 10^8 CFU/mL (for S. aureus) was injected into the left forelimb muscle of the same mice. […] One hundred microliters of [^99mTc]Tc-CN5UBI 29-41 (30~37 MBq) was injected intravenously into each bacterially infected mouse via the tail vein (n = 2). […] The SPECT/CT images were reconstructed with HiSPECT 3.2.0 software (Bioscan, Washington, DC, USA) and processed with VivoQuant 2.5 software (Invicro, Needham, MA, USA).

| Substance | Abscess/Blood ratio [1] | Abscess/Muscle ratio (target-to-nontarget ratio) [1] | Log D ± SD, [^99mTc][Tc(Ⅰ)]^+ Core [3] | Log D ± SD, [^99mTc][Tc(Ⅴ)N]^2+ Core [3] | other results |
| --- | --- | --- | --- | --- | --- |
| [^99mTc]Tc(CO)3-CN5UBI 29-41: ^99mTc complex of ligand CN5UBI 29-41 with the [^99mTc][Tc(I)(CO)3(H2O)3]^+ core (TGRAKRRMQYNRR; also: CN5 chelator, position not given here, 99mTc(CO)3 complex; UniProt P62861 103-115, looked up, fragment) | 0.67 ± 0.15 | 2.49 ± 0.65 |  |  |  |
| [^99mTc]Tc(CO)3-CN6UBI 29-41: ^99mTc complex of ligand CN6UBI 29-41 with the [^99mTc][Tc(I)(CO)3(H2O)3]^+ core (TGRAKRRMQYNRR; also: CN6 chelator, position not given here, 99mTc(CO)3 complex; UniProt P62861 103-115, looked up, fragment) | 0.73 ± 0.19 | 2.48 ± 0.45 |  |  |  |
| [^99mTc]Tc(CO)3-CN7UBI 29-41: ^99mTc complex of ligand CN7UBI 29-41 with the [^99mTc][Tc(I)(CO)3(H2O)3]^+ core (TGRAKRRMQYNRR; also: CN7 chelator, position not given here, 99mTc(CO)3 complex; UniProt P62861 103-115, looked up, fragment) | 0.69 ± 0.08 | 2.43 ± 0.49 |  |  |  |
| [^99mTc]Tc(CO)3-CN8UBI 29-41: ^99mTc complex of ligand CN8UBI 29-41 with the [^99mTc][Tc(I)(CO)3(H2O)3]^+ core (TGRAKRRMQYNRR; also: CN8 chelator, position not given here, 99mTc(CO)3 complex; UniProt P62861 103-115, looked up, fragment) | 0.64 ± 0.11 | 2.42 ± 0.37 |  |  |  |
| [^99mTc]Tc(CO)3-CN9UBI 29-41: ^99mTc complex of ligand CN9UBI 29-41 with the [^99mTc][Tc(I)(CO)3(H2O)3]^+ core (TGRAKRRMQYNRR; also: CN9 chelator, position not given here, 99mTc(CO)3 complex; UniProt P62861 103-115, looked up, fragment) | 0.75 ± 0.12 | 2.60 ± 0.68 |  |  |  |
| [^99mTc]Tc-CN5UBI 29-41: ^99mTc complex of ligand CN5UBI 29-41 with the [^99mTc]Tc(I)^+ core (TGRAKRRMQYNRR; also: CN5 chelator, position not given here, 99mTc(I) complex; UniProt P62861 103-115, looked up, fragment) |  | 4.15 ± 0.49 | −2.66 ± 0.02 |  | Abscess uptake [2]: 0.73 ± 0.05 %ID/g; Abscess/Blood ratio [2]: 0.59 ± 0.06; Abscess/Muscle ratio (target-to-nontarget ratio) [2]: 2.52 ± 0.22; Blood uptake [2]: 1.28 ± 0.12 %ID/g; Bone uptake [2]: 0.82 ± 0.19 %ID/g; Gallbladder uptake [2]: 0.15 ± 0.04 %ID; Heart uptake [2]: 0.61 ± 0.03 %ID/g; Kidney uptake [2]: 13.05 ± 1.24 %ID/g; Large Intestines uptake [2]: 0.62 ± 0.18 %ID/g; SPECT image finding at infection site [4]: accumulated at the site of bacterial infection |
| [^99mTc]Tc-CN6UBI 29-41: ^99mTc complex of ligand CN6UBI 29-41 with the [^99mTc]Tc(I)^+ core (TGRAKRRMQYNRR; also: CN6 chelator, position not given here, 99mTc(I) complex; UniProt P62861 103-115, looked up, fragment) | 0.75 ± 0.10 | 3.48 ± 0.70 | −2.62 ± 0.03 |  |  |
| [^99mTc]Tc-CN7UBI 29-41: ^99mTc complex of ligand CN7UBI 29-41 with the [^99mTc]Tc(I)^+ core (TGRAKRRMQYNRR; also: CN7 chelator, position not given here, 99mTc(I) complex; UniProt P62861 103-115, looked up, fragment) | 0.56 ± 0.09 | 2.52 ± 0.56 | −2.57 ± 0.03 |  |  |
| [^99mTc]Tc-CN8UBI 29-41: ^99mTc complex of ligand CN8UBI 29-41 with the [^99mTc]Tc(I)^+ core (TGRAKRRMQYNRR; also: CN8 chelator, position not given here, 99mTc complex with [99mTc]Tc(I)+ core; UniProt P62861 103-115, looked up, fragment) | 0.66 ± 0.16 | 2.64 ± 0.65 | −2.54 ± 0.01 |  |  |
| [^99mTc]Tc-CN9UBI 29-41: ^99mTc complex of ligand CN9UBI 29-41 with the [^99mTc]Tc(I)^+ core (TGRAKRRMQYNRR; also: CN9 chelator, position not given here, 99mTc complex with [99mTc]Tc(I)+ core; UniProt P62861 103-115, looked up, fragment) | 0.69 ± 0.04 | 2.62 ± 0.42 | −2.52 ± 0.01 |  |  |
| [^99mTc]TcN-CN5UBI 29-41: ^99mTc complex of ligand CN5UBI 29-41 with the [^99mTc][Tc(V)N]^2+ core (TGRAKRRMQYNRR; also: CN5 chelator, position not given here, 99mTc complex with [99mTc][Tc(V)N]2+ core; UniProt P62861 103-115, looked up, fragment) | 0.69 ± 0.22 | 2.10 ± 0.80 |  | −2.71 ± 0.03 |  |
| [^99mTc]TcN-CN6UBI 29-41: ^99mTc complex of ligand CN6UBI 29-41 with the [^99mTc][Tc(V)N]^2+ core (TGRAKRRMQYNRR; also: CN6 chelator, position not given here, 99mTc complex with [99mTc][Tc(V)N]2+ core; UniProt P62861 103-115, looked up, fragment) | 0.70 ± 0.15 | 3.32 ± 0.99 |  | −2.65 ± 0.03 |  |
| [^99mTc]TcN-CN7UBI 29-41: ^99mTc complex of ligand CN7UBI 29-41 with the [^99mTc][Tc(V)N]^2+ core (TGRAKRRMQYNRR; also: CN7 chelator, position not given here, 99mTc complex with [99mTc][Tc(V)N]2+ core; UniProt P62861 103-115, looked up, fragment) | 0.58 ± 0.12 | 2.47 ± 0.47 |  | −2.58 ± 0.04 |  |
| [^99mTc]TcN-CN8UBI 29-41: ^99mTc complex of ligand CN8UBI 29-41 with the [^99mTc][Tc(V)N]^2+ core (TGRAKRRMQYNRR; also: CN8 chelator, position not given here, 99mTc complex with [99mTc][Tc(V)N]2+ core; UniProt P62861 103-115, looked up, fragment) | 0.72 ± 0.13 | 2.81 ± 0.55 |  | −2.55 ± 0.03 |  |
| [^99mTc]TcN-CN9UBI 29-41: ^99mTc complex of ligand CN9UBI 29-41 with the [^99mTc][Tc(V)N]^2+ core (TGRAKRRMQYNRR; also: CN9 chelator, position not given here, 99mTc complex with [99mTc][Tc(V)N]2+ core; UniProt P62861 103-115, looked up, fragment) | 0.70 ± 0.29 | 2.79 ± 0.82 |  | −2.41 ± 0.03 |  |

Source: publication PMC10816394, “Radiosynthesis and Bioevaluation of ^99mTc-Labeled Isocyanide Ubiquicidin 29-41 Derivatives as Potential Agents for Bacterial Infection Imaging” (International Journal of Molecular Sciences, 2024)
